Columns and labels:
Assay type in all cases: in vivo
[1] = tested on: mice; test: Example 42B: EPO mRNA dose response IM in mice (Table 68)
Method: The mice were bled at 13 hours after the injection to determine the concentration of the human polypeptide in serum in pg/mL.

[2] = tested on: non-human primates (cynomolgus monkey); test: Example 22: LNP IV in non-human primates, serum G-CSF/EPO ELISA (Tables 38, 39)
Method: LNP formulations, shown in Table 33 (above), were administered to non-human primates (NHP) (cynomolgus monkey) (n=2) as intravenous injection (IV). The NHP were administered a single modified mRNA IV dose of 0.5 mg/kg, 0.05 mg/kg or 0.005 mg/kg of G-CSF or EPO in a dose volume of 0.5 mL/kg. The NHPs were bled before dosing with the modified mRNA LNP formulations to determine protein expression in the serum and a baseline complete blood count. After administration with the G-CSF modified mRNA formulation the NHP were bled at 8, 24, 48 and 72 hours to determined protein expression. After administration with the EPO modified mRNA formulation the NHP were bled at 8, 24, 48, 72 hours and 7 days to determined protein expression.
Samples collected from the NHPs after they were administered with G-CSF or EPO modified mRNA formulations were analyzed by ELISA to determine protein expression. Neutrophil and reticulocyte count was also determined pre-dose, 24 hours, 3 days, 7 days, 14 days and 18 days after administration of the modified G-CSF or EPO formulation.

[3] = tested on: non-human primates (cynomolgus monkey); test: Example 21: LNP IV in non-human primates, serum EPO/G-CSF ELISA (Table 37); details: 0.005 mg/kg IV
Method: Formulations, listed in Table 33, were characterized by particle size, zeta potential, and encapsulation.
LNP formulations, shown in Table 33 (above), were administered to non-human primates (NHP) (cynomolgus monkey) (n=2) as a bolus intravenous injection (IV) over approximately 30 seconds using a hypodermic needle, which may be attached to a syringe/abbocath or butterfly if needed. The NHP were administered a single modified mRNA IV dose of 0.05 mg/kg of EPO or G-CSF or 0.005 mg/kg of EPO in a dose volume of 0.5 mL/kg. The NHPs were bled 5-6 days before dosing with the modified mRNA LNP formulations to determine protein expression in the serum and a baseline complete blood count. After administration with the modified mRNA formulation the NHP were bled at 8, 24, 48 and 72 hours to determined protein expression. At 24 and 72 hours after administration the complete blood count of the NHP was also determined. Protein expression of G-CSF and EPO was determined by ELISA. Urine from the NHPs was collected over the course of the entire experiment and analyzed to evaluate clinical safety. Samples were collected from the NHPs after they were administered with G-CSF or EPO modified mRNA formulations to determine protein expression using ELISA. Clinical chemistry, hematology, urinalysis and cytokines of the non-human primates were also analyzed.

B1: EPO: modified mRNA encoding human erythropoietin, SEQ ID NO: 7, Cap1, fully modified with 5-methylcytosine and pseudouridine; LNP NPA-060-1 in Examples 17-22 (nucleic acid)
chain: GGGAAAUAAGAGAGAAAAGAAGAGUAAGAAGAAAUAUAAGAGCCACCAUGGGAGUGCACGAGUGUCCCGCGUGGUUGUGGUUGCUGCUGUCGCUCUUGAGCCUCCCACUGGGACUGCCUGUGCUGGGGGCACCACCCAGAUUGAUCUGCGACUCACGGGUACUUGAGAGGUACCUUCUUGAAGCCAAAGAAGCCGAAAACAUCACAACCGGAUGCGCCGAGCACUGCUCCCUCAAUGAGAACAUUACUGUACCGGAUACAAAGGUCAAUUUCUAUGCAUGGAAGAGAAUGGAAGUAGGACAGCAGGCCGUCGAAGUGUGGCAGGGGCUCGCGCUUUUGUCGGAGGCGGUGUUGCGGGGUCAGGCCCUCCUCGUCAACUCAUCACAGCCGUGGGAGCCCCUCCAACUUCAUGUCGAUAAAGCGGUGUCGGGGCUCCGCAGCUUGACGACGUUGCUUCGGGCUCUGGGCGCACAAAAGGAGGCUAUUUCGCCGCCUGACGCGGCCUCCGCGGCACCCCUCCGAACGAUCACCGCGGACACGUUUAGGAAGCUUUUUAGAGUGUACAGCAAUUUCCUCCGCGGAAAGCUGAAAUUGUAUACUGGUGAAGCGUGUAGGACAGGGGAUCGCUGAUAAGCUGCCUUCUGCGGGGCUUGCCUUCUGGCCAUGCCCUUCUUCUCUCCCUUGCACCUGUACCUCUUGGUCUUUGAAUAAAGCCUGAGUAGGAAG
modifications: Cap1, 5-methylcytosine, pseudouridine
Question: With B1 as the molecule, how does the “Average Protein Product, serum” value ([1]; Dose Vol. (μl/mouse) 1, 13 hours) read?
Answer: 2.6 pg/mL

Question: What about the “Average Protein Product, serum” value ([1]; Dose Vol. (μl/mouse) 10, 13 hours) of the same molecule?
Answer: 25.9 pg/mL

Question: What about the “Average Protein Product, serum” value ([1]; Dose Vol. (μl/mouse) 25, 13 hours) of the same molecule?
Answer: 18.7 pg/mL

Question: What about the “Average Protein Product, serum” value ([1]; Dose Vol. (μl/mouse) 50, 13 hours) of the same molecule?
Answer: 63.5 pg/mL

Question: And the “Average Protein Product, serum” value ([1]; Dose Vol. (μl/mouse) 100, 13 hours)?
Answer: 96.2 pg/mL

Question: And the “Female NHP Serum G-CSF / EPO Concentration” value ([2]; 0.005 mg/kg IV, 8 hours)?
Answer: 523 pg/mL

Question: What about the “Male NHP Serum G-CSF / EPO Concentration” value ([2]; 0.005 mg/kg IV, 8 hours) of the same molecule?
Answer: 250 pg/mL

Question: And the “Female NHP Serum G-CSF / EPO Concentration” value ([2]; 0.005 mg/kg IV, 24 hours)?
Answer: 302 pg/mL

Question: What about the “Male NHP Serum G-CSF / EPO Concentration” value ([2]; 0.005 mg/kg IV, 24 hours) of the same molecule?
Answer: 113 pg/mL

Question: And the “Female NHP Serum G-CSF / EPO Concentration” value ([2]; 0.005 mg/kg IV, 48 hours)?
Answer: 11 pg/mL

Question: What about the “Male NHP Serum G-CSF / EPO Concentration” value ([2]; 0.005 mg/kg IV, 48 hours) of the same molecule?
Answer: 29 pg/mL

Question: What about the “Female NHP Serum G-CSF / EPO Concentration” value ([2]; 0.005 mg/kg IV, 72 hours) of the same molecule?
Answer: <7.8 pg/mL

Question: What about the “Male NHP Serum G-CSF / EPO Concentration” value ([2]; 0.005 mg/kg IV, 72 hours) of the same molecule?
Answer: <7.8 pg/mL

Question: And the “Female NHP Serum G-CSF / EPO Concentration” value ([2]; 0.005 mg/kg IV, 7 days)?
Answer: <7.8 pg/mL

Question: And the “Male NHP Serum G-CSF / EPO Concentration” value ([2]; 0.005 mg/kg IV, 7 days)?
Answer: <7.8 pg/mL

Question: What about the “Female NHP Serum G-CSF / EPO Concentration” value ([2]; 0.005 mg/kg IV, Pre-bleed) of the same molecule?
Answer: <7.8 pg/mL

Question: And the “Male NHP Serum G-CSF / EPO Concentration” value ([2]; 0.005 mg/kg IV, Pre-bleed)?
Answer: <7.8 pg/mL

Question: What about the “Female NHP Serum G-CSF / EPO Concentration” value ([2]; 0.05 mg/kg IV, 8 hours) of the same molecule?
Answer: 19,858 pg/ml

Question: And the “Male NHP Serum G-CSF / EPO Concentration” value ([2]; 0.05 mg/kg IV, 8 hours)?
Answer: 7,072 pg/ml

Question: What about the “Female NHP Serum G-CSF / EPO Concentration” value ([2]; 0.05 mg/kg IV, 24 hours) of the same molecule?
Answer: 18,187 pg/ml

Question: And the “Male NHP Serum G-CSF / EPO Concentration” value ([2]; 0.05 mg/kg IV, 24 hours)?
Answer: 4,913 pg/ml

Question: And the “Female NHP Serum G-CSF / EPO Concentration” value ([2]; 0.05 mg/kg IV, 48 hours)?
Answer: 5,291 pg/ml

Question: What about the “Male NHP Serum G-CSF / EPO Concentration” value ([2]; 0.05 mg/kg IV, 48 hours) of the same molecule?
Answer: 498 pg/mL

Question: What about the “Female NHP Serum G-CSF / EPO Concentration” value ([2]; 0.05 mg/kg IV, 72 hours) of the same molecule?
Answer: 744 pg/mL

Question: And the “Male NHP Serum G-CSF / EPO Concentration” value ([2]; 0.05 mg/kg IV, 72 hours)?
Answer: 60 pg/mL

Question: What about the “Female NHP Serum G-CSF / EPO Concentration” value ([2]; 0.05 mg/kg IV, 7 days) of the same molecule?
Answer: <7.8 pg/mL

Question: And the “Male NHP Serum G-CSF / EPO Concentration” value ([2]; 0.05 mg/kg IV, 7 days)?
Answer: <7.8 pg/mL

Question: And the “Female NHP Serum G-CSF / EPO Concentration” value ([2]; 0.05 mg/kg IV, Pre-bleed)?
Answer: <7.8 pg/mL

Question: What about the “Male NHP Serum G-CSF / EPO Concentration” value ([2]; 0.05 mg/kg IV, Pre-bleed) of the same molecule?
Answer: <7.8 pg/mL

Question: What about the “Female NHP Serum G-CSF / EPO Concentration” value ([2]; 0.5 mg/kg IV, 8 hours) of the same molecule?
Answer: 158,771 pg/ml

Question: And the “Male NHP Serum G-CSF / EPO Concentration” value ([2]; 0.5 mg/kg IV, 8 hours)?
Answer: 119,086 pg/ml

Question: And the “Female NHP Serum G-CSF / EPO Concentration” value ([2]; 0.5 mg/kg IV, 24 hours)?
Answer: 133,978 pg/ml

Question: And the “Male NHP Serum G-CSF / EPO Concentration” value ([2]; 0.5 mg/kg IV, 24 hours)?
Answer: 85,825 pg/ml

Question: What about the “Female NHP Serum G-CSF / EPO Concentration” value ([2]; 0.5 mg/kg IV, 48 hours) of the same molecule?
Answer: 45,250 pg/ml

Question: And the “Male NHP Serum G-CSF / EPO Concentration” value ([2]; 0.5 mg/kg IV, 48 hours)?
Answer: 64,793 pg/ml

Question: And the “Female NHP Serum G-CSF / EPO Concentration” value ([2]; 0.5 mg/kg IV, 72 hours)?
Answer: 15,097 pg/ml

Question: And the “Male NHP Serum G-CSF / EPO Concentration” value ([2]; 0.5 mg/kg IV, 72 hours)?
Answer: 20,407 pg/ml

Question: And the “Female NHP Serum G-CSF / EPO Concentration” value ([2]; 0.5 mg/kg IV, 7 days)?
Answer: <7.8 pg/mL

Question: What about the “Male NHP Serum G-CSF / EPO Concentration” value ([2]; 0.5 mg/kg IV, 7 days) of the same molecule?
Answer: <7.8 pg/mL

Question: And the “Female NHP Serum G-CSF / EPO Concentration” value ([2]; 0.5 mg/kg IV, Pre-bleed)?
Answer: <7.8 pg/mL

Question: What about the “Male NHP Serum G-CSF / EPO Concentration” value ([2]; 0.5 mg/kg IV, Pre-bleed) of the same molecule?
Answer: <7.8 pg/mL

Question: What about the “protein expression not detected beyond” value ([2]; NHP IV) of the same molecule?
Answer: ≤ 7 days

Question: What about the “Average Serum Concentration” value ([3]; 8 hours) of the same molecule?
Answer: 387 pg/mL

Question: And the “Female NHP Serum Concentration” value ([3]; 8 hours)?
Answer: 523 pg/mL

Question: What about the “Male NHP Serum Concentration” value ([3]; 8 hours) of the same molecule?
Answer: 250 pg/mL

Question: What about the “Average Serum Concentration” value ([3]; 24 hours) of the same molecule?
Answer: 208 pg/mL

Question: And the “Female NHP Serum Concentration” value ([3]; 24 hours)?
Answer: 302 pg/mL

Question: And the “Male NHP Serum Concentration” value ([3]; 24 hours)?
Answer: 113 pg/mL

Question: What about the “Average Serum Concentration” value ([3]; 48 hours) of the same molecule?
Answer: <7.8 pg/mL

Question: What about the “Female NHP Serum Concentration” value ([3]; 48 hours) of the same molecule?
Answer: <7.8 pg/mL

Question: And the “Male NHP Serum Concentration” value ([3]; 48 hours)?
Answer: <7.8 pg/mL

Reference: patent US20190142971A1, “FORMULATION AND DELIVERY OF MODIFIED NUCLEOSIDE, NUCLEOTIDE, AND NUCLEIC ACID COMPOSITIONS” (ModernaTX, Inc., priority 2013, published 2019)
